From IntAct's records for PubMed 25910212

B1: Tyrosine aminotransferase (Homo sapiens), P17735 (parent)
chain: MDPYMIQMSSKGNLPSILDVHVNVGGRSSVPGKMKGRKARWSVRPSDMAKKTFNPIRAIVDNMKVKPNPNKTMISLSIGDPTVFGNLPTDPEVTQAMKDALDSGKYNGYAPSIGFLSSREEIASYYHCPEAPLEAKDVILTSGCSQAIDLCLAVLANPGQNILVPRPGFSLYKTLAESMGIEVKLYNLLPEKSWEIDLKQLEYLIDEKTACLIVNNPSNPCGSVFSKRHLQKILAVAARQCVPILADEIYGDMVFSDCKYEPLATLSTDVPILSCGGLAKRWLVPGWRLGWILIHDRRDIFGNEIRDGLVKLSQRILGPCTIVQGALKSILCRTPGEFYHNTLSFLKSNADLCYGALAAIPGLRPVRPSGAMYLMVGIEMEHFPEFENDVEFTERLVAEQSVHCLPATCFEYPNFIRVVITVPEVMMLEACSRIQEFCEQHYHCAEGSQEECDK
B2: Adiponectin (Homo sapiens), Q15848 (parent)
chain: MLLLGAVLLLLALPGHDQETTTQGPGVLLPLPKGACTGWMAGIPGHPGHNGAPGRDGRDGTPGEKGEKGDPGLIGPKGDIGETGVPGAEGPRGFPGIQGRKGEPGEGAYVYRSAFSVGLETYVTIPNMPIRFTKIFYNQQNHYDGSTGKFHCNIPGLYYFAYHITVYMKDVKVSLFKKDKAMLFTYDQYQENNVDQASGSVLLHLEVGDQVWLQVYGEGERNGLYADNDNDSTFTGFLLYHDTN
partner: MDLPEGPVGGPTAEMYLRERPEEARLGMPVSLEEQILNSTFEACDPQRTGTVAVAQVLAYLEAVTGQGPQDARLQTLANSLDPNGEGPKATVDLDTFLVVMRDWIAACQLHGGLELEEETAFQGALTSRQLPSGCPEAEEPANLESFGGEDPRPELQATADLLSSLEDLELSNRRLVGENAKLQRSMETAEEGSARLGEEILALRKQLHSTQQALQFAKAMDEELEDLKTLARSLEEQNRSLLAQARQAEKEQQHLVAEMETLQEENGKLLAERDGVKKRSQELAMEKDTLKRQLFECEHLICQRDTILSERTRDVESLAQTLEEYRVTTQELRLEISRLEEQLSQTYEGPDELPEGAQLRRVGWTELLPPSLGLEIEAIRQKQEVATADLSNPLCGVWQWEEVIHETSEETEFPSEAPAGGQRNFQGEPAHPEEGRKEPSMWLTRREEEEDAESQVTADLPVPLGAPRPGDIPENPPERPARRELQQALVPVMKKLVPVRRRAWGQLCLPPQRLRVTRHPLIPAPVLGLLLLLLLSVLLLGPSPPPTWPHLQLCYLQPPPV
B3: Cytidine deaminase (Homo sapiens), P32320 (parent)
chain: MAQKRPACTLKPECVQQLLVCSQEAKKSAYCPYSHFPVGAALLTQEGRIFKGCNIENACYPLGICAERTAIQKAVSEGYKDFRAIAIASDMQDDFISPCGACRQVMREFGTNWPVYMTKPDGTYIVMTVQELLPSSFGPEDLQKTQ
partner: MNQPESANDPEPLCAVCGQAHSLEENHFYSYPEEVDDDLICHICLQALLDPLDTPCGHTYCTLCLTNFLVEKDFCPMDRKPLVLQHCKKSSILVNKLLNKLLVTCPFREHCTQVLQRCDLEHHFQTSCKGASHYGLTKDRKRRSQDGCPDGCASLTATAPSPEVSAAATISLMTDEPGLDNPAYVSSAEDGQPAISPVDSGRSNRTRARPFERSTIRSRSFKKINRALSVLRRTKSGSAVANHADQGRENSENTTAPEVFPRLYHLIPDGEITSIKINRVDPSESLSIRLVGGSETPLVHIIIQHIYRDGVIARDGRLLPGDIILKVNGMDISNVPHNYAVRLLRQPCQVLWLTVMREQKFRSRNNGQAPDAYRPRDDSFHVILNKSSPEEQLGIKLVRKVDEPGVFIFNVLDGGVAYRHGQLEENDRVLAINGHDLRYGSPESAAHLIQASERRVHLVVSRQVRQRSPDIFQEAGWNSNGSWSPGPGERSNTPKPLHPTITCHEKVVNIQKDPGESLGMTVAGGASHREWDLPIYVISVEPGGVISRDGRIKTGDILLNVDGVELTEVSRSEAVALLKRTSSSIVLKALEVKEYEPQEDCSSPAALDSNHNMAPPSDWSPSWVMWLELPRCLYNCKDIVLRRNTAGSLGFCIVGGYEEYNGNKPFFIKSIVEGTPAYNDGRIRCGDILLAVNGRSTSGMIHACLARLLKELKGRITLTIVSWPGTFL
B4: Vitamin D3 receptor (Homo sapiens), P11473 (parent)
chain: MEAMAASTSLPDPGDFDRNVPRICGVCGDRATGFHFNAMTCEGCKGFFRRSMKRKALFTCPFNGDCRITKDNRRHCQACRLKRCVDIGMMKEFILTDEEVQRKREMILKRKEEEALKDSLRPKLSEEQQRIIAILLDAHHKTYDPTYSDFCQFRPPVRVNDGGGSHPSRPNSRHTPSFSGDSSSSCSDHCITSSDMMDSSSFSNLDLSEEDSDDPSVTLELSQLSMLPHLADLVSYSIQKVIGFAKMIPGFRDLTSEDQIVLLKSSAIEVIMLRSNESFTMDDMSWTCGNQDYKYRVSDVTKAGHSLELIEPLIKFQVGLKKLNLHEEEHVLLMAICIVSPDRPGVQDAALIEAIQDRLSNTLQTYIRCRHPPPGSHLLYAKMIQKLADLRSLNEEHSKQYRCLSFQPECSMKLTPLVLEVFGNEIS
B5: Carbonic anhydrase-related protein (Homo sapiens), P35219 (parent)
chain: MADLSFIEDTVAFPEKEEDEEEEEEGVEWGYEEGVEWGLVFPDANGEYQSPINLNSREARYDPSLLDVRLSPNYVVCRDCEVTNDGHTIQVILKSKSVLSGGPLPQGHEFELYEVRFHWGRENQRGSEHTVNFKAFPMELHLIHWNSTLFGSIDEAVGKPHGIAIIALFVQIGKEHVGLKAVTEILQDIQYKGKSKTIPCFNPNTLLPDPLLRDYWVYEGSLTIPPCSEGVTWILFRYPLTISQLQIEEFRRLRTHVKGAELVEGCDGILGDNFRPTQPLSDRVIRAAFQ
partner: B3 partner
B6: U4/U6 small nuclear ribonucleoprotein Prp31 (Homo sapiens), Q8WWY3 (parent)
chain: MSLADELLADLEEAAEEEEGGSYGEEEEEPAIEDVQEETQLDLSGDSVKTIAKLWDSKMFAEIMMKIEEYISKQAKASEVMGPVEAAPEYRVIVDANNLTVEIENELNIIHKFIRDKYSKRFPELESLVPNALDYIRTVKELGNSLDKCKNNENLQQILTNATIMVVSVTASTTQGQQLSEEELERLEEACDMALELNASKHRIYEYVESRMSFIAPNLSIIIGASTAAKIMGVAGGLTNLSKMPACNIMLLGAQRKTLSGFSSTSVLPHTGYIYHSDIVQSLPPDLRRKAARLVAAKCTLAARVDSFHESTEGKVGYELKDEIERKFDKWQEPPPVKQVKPLPAPLDGQRKKRGGRRYRKMKERLGLTEIRKQANRMSFGEIEEDAYQEDLGFSLGHLGKSGSGRVRQTQVNEATKARISKTLQRTLQKQSVVYGGKSTIRDRSSGTASSVAFTPLQGLEIVNPQAAEKKVAEANQKYFSSMAEFLKVKGEKSGLMST
partner: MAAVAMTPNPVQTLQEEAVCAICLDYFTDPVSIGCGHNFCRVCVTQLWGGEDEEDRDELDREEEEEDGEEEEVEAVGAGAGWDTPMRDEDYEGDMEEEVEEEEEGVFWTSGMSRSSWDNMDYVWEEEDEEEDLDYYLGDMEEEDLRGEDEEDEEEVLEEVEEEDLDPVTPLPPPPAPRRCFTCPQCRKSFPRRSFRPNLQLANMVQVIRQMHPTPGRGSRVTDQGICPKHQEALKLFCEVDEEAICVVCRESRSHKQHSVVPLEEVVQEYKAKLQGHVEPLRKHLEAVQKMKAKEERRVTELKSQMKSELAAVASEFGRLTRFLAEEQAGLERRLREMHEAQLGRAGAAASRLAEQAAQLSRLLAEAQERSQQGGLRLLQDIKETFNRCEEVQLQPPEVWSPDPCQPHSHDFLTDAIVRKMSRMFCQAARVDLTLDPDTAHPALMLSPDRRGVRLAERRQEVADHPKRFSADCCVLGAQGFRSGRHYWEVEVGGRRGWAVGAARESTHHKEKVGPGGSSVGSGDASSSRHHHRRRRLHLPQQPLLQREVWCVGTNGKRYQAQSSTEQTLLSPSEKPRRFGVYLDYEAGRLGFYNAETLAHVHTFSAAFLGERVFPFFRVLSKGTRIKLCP
B7: Methylmalonyl-CoA epimerase, mitochondrial (Homo sapiens), Q96PE7 (parent)
chain: MARVLKAAAANAVGLFSRLQAPIPTVRASSTSQPLDQVTGSVWNLGRLNHVAIAVPDLEKAAAFYKNILGAQVSEAVPLPEHGVSVVFVNLGNTKMELLHPLGRDSPIAGFLQKNKAGGMHHICIEVDNINAAVMDLKKKKIRSLSEEVKIGAHGKPVIFLHPKDCGGVLVELEQA

Variants of: B1
Settings: with UBE3A

Row | Variant | effect of a mutation on the interaction
1 | P220S | disrupting interaction strength
2 | R119W | with no effect
3 | L273P | disrupting interaction strength
4 | R433W | disrupting interaction strength

Variants of: B1
Settings: with glna_human GLUL

Row | Variant | effect of a mutation on the interaction
5 | P220S | with no effect
6 | R119W | with no effect
7 | L273P | disrupting interaction strength
8 | R433W | disrupting interaction strength

Variants of: B2
Settings: with kash5_human KASH5, Q8N6L0

Row | Variant | effect of a mutation on the interaction
9 | Y111H | with no effect

Variants of: B3
Settings: with lnx1_human LNX1, Q8TBB1

Row | Variant | effect of a mutation on the interaction
10 | A70T | with no effect

Variants of: B4
Settings: with meox2_human MEOX2, P50222
Sequence of meox2_human MEOX2, P50222 (P50222 whole entry): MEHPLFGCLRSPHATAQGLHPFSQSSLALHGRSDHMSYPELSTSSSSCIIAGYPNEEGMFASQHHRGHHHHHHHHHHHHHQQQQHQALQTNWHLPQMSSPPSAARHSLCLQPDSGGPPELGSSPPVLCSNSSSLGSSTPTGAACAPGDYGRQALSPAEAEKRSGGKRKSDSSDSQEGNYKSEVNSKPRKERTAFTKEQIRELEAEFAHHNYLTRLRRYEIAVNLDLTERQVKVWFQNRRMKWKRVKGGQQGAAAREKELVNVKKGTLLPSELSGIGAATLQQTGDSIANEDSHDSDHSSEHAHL

Row | Variant | effect of a mutation on the interaction
11 | G33D | with no effect
12 | C190W | disrupting interaction strength
13 | E329K | disrupting interaction strength
14 | I268T | with no effect

Variants of: B5
Settings: with lnx1_human LNX1, Q8TBB1

Row | Variant | effect of a mutation on the interaction
15 | S100P | disrupting interaction strength

Variants of: B6
Settings: with tri41_human TRIM41, Q8WV44

Row | Variant | effect of a mutation on the interaction
16 | L107V | with no effect

Variants of: B7
Settings: with AGTRAP

Row | Variant | effect of a mutation on the interaction
17 | R143C | with no effect
18 | R143H | with no effect

Variants of: B7
Settings: with CMTM5, Q96DZ9-2
Sequence of CMTM5, Q96DZ9-2 (Q96DZ9 other isoform, or with tags, fused parts or gaps): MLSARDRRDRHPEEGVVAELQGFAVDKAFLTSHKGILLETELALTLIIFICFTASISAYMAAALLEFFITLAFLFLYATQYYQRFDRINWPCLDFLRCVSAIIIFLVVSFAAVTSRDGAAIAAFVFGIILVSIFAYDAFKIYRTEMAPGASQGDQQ

Row | Variant | effect of a mutation on the interaction
19 | R143C | with no effect
20 | R143H | with no effect
